From US20220267469A1 (LIPUM, published 2022)

T1: Mouse BSSL, recombinant (mouse, UniProt Q64285 21-599)
T1 construct: Bought (R&D Systems, Cat. no 5658-CE); also called mBSSL; murine BSSL
T1 sequence: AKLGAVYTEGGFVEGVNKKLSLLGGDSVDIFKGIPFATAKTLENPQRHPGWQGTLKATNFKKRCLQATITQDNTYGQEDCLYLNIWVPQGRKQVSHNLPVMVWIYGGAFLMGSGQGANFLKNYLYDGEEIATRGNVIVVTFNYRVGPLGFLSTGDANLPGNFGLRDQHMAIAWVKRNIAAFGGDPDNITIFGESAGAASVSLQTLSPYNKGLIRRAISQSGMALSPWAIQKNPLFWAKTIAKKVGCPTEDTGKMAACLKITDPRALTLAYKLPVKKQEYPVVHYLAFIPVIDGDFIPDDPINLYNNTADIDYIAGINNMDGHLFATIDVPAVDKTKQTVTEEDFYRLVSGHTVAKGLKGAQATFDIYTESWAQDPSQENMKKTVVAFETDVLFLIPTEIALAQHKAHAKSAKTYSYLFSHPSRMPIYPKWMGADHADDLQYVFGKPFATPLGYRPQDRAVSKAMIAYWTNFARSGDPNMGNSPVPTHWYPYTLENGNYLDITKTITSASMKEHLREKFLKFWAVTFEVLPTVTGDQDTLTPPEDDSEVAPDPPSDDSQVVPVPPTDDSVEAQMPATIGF

T2: Human BSSL (bile salt-stimulated lipase), native (human, UniProt P19835 21-753)
T2 construct: Native full-length protein purified from human milk (Astra Hässle AB); also called hBSSL; non-biotinylated human BSSL
T2 sequence: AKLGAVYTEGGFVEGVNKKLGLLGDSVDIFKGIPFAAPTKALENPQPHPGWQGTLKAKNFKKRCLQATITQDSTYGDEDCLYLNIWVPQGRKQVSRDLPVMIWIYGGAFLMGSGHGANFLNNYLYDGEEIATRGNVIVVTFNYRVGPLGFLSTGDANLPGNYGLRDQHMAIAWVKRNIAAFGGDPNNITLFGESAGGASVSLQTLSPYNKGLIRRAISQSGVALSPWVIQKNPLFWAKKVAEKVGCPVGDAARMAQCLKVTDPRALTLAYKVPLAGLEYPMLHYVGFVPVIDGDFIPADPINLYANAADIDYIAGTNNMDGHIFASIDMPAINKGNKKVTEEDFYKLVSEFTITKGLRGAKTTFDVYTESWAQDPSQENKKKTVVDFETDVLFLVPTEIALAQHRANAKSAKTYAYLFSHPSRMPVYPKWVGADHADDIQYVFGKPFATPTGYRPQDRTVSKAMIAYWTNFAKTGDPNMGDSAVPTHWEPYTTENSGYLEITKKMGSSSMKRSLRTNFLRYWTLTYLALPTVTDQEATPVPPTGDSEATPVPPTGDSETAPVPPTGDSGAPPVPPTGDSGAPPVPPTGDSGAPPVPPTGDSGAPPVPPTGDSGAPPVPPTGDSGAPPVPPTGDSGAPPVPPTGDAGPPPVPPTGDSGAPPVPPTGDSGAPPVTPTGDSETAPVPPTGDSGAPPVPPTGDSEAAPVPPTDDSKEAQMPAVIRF

T3: Biotinylated human BSSL (human, UniProt P19835 21-753, Biotinylated on glycosacarides, 30-40 biotin/BSSL)
T3 construct: hBSSL biotinylated in house; also called b-hBSSL; human BSSL-biotin
T3 sequence: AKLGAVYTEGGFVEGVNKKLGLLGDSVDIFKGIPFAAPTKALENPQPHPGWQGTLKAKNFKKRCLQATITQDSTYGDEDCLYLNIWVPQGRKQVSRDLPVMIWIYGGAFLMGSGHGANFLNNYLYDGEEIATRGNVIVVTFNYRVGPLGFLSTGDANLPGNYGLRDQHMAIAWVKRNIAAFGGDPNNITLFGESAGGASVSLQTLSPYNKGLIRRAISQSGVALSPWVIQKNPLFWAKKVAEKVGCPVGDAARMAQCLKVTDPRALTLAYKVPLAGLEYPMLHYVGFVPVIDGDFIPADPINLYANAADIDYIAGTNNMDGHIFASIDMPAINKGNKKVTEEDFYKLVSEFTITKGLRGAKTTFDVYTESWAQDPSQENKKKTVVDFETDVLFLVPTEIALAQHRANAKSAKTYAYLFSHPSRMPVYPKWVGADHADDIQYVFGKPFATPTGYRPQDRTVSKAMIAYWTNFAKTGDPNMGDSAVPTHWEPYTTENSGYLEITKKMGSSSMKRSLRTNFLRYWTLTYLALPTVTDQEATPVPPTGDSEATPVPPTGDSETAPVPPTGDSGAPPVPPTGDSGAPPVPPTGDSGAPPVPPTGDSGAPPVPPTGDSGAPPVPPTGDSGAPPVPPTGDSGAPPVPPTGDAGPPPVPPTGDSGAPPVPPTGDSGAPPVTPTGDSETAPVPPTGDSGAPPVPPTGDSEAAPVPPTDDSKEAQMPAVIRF


Columns and labels:
[1] = target: T1, Mouse BSSL, recombinant; assay: SPR steady state, hIgG4 S228P captured by anti-Fab
Method: (§1) Kinetic parameters of the hIgG4 S228P clones were determined by SPR using BIACORE® T200 (GE Healthcare). Single cycle kinetics was used to measure the affinity of the purified hIgG4 molecules to human and mouse BSSL. An anti-Fab antibody (GE Healthcare, #28958325) was immobilized on a CM5 S sensor chip by primary amine coupling using NHS-EDC chemistry. hIgG4 was captured by the anti-Fab antibody, and subsequently, five different concentrations of hBSSL (1:5 dilutions starting from 50 nM) or mBSSL (1:5 dilutions starting from 500 nM) were injected over the surface. The sensor chip surface was regenerated with 10 mM glycine-HCl pH 2.1. For binding to human BSSL, single cycle kinetic data was fitted to a 1:1 binding model and kinetic parameters were retrieved using software BlAevaluation. For mouse BSSL, a steady state analysis was performed by plotting the response level at equilibrium against each concentration, and KD values were retrieved by the BlAevalution software.

[2] = target: T2, Human BSSL (bile salt-stimulated …); assay: SPR single cycle kinetics, hIgG4 S228P captured by anti-Fab
Method: as §1

[3] = target: T3, Biotinylated human BSSL; assay: flow cytometry displacement assay; 1.5 ug antibody, 1 ug b-hBSSL
Method: (§2) The 28 BSSL-specific hIgG4 antibodies and the five reference antibodies at different concentrations (ranging from 0.5 μg to 3.0 μg per reaction; see Table 10) were added to b-hBSSL (1 μg per reaction, see Table 2) in round-bottom polystyrene tubes, lx PBS (pH 7.4) was added to a final volume of 20 μl and the antibody/b-hBSSL mixtures were incubated for 30 min. at +4° C. to facilitate binding of antibodies to BSSL. Buffy coat (50 μl) was then added to each antibody/b-hBSSL mixture and incubation continued for another 30 min at +4° C. Thereafter, 2 ml of FACS lysing solution (BD Biosciences) was added and the cells were incubated for 10 min at room temperature in order to lyse erythrocytes and fix the white blood cells. The cells were then centrifuged for 5 min. at 200×g, the resulting pellets were washed by adding 2 ml of FACS buffer (1×PBS supplemented with 1% FCS and 0.1% NaN3) and centrifuged again. Finally, the supernatants were discarded and the cells were resuspended in the last drop of liquid, approximately 50 μl.
(§3) 5 μl of BV421-labelled anti-human CD14 (BD Biosciences) and 5 μl of BB515-labelled streptavidin (BD Biosciences) was added to each tube and incubated for 30 min, at +4° C., protected from light. Thereafter, cells were washed twice with FACS buffer, resuspended in 500 μl FACS buffer, and run on BD LSRII flow cytometer (BD Biosciences). Finally, data were analyzed using FlowJo software (BD Biosciences).

[4] = target: T3, Biotinylated human BSSL; assay: flow cytometry displacement assay; 3.0 ug antibody, 1 ug b-hBSSL
Method: as §2, §3

Kd [1] [nM] | Kd [2] [nM] | percentage reduction of b-hBSSL binding to CD14+ monocytes [3] [%] | percentage reduction of b-hBSSL binding to CD14+ monocytes [4] [%] | Binder
57 | 0.9 |  |  | S-SL048-13 hIgG4 S228P (antibody, V domains shown, Tested as human IgG4 S228P) VH: QVQLVQSGAEVKKPGASVKVSCKASGYTFTSYNMHWVRQAPGQGLEWIGVINPSDGATSYTQKFQGRVTMTRDTSTSTVYMELSSLRSEDTAVYYCARDYYGSSPLGYWGQGTLVTVSS VL: DIQMTQSPSSLSASVGDRVTITCSASPSISYLNWYQQKPGKAPKLLIYATSSLASGVPSRFSGSGSGTDFTLTISSLQPEDFATYYCQQRSSSPTFGQGTKLEIK
57 | 6.4 |  |  | S-SL048-12 hIgG4 S228P (antibody, V domains shown, Tested as human IgG4 S228P) VH: QVQLVQSGAEVKKPGASVKVSCKASGYTFTSYNMHWVRQAPGQGLEWMGVINPSDGATSYTQKFQGRVTMTRDTSTSTVYMELSSLRSEDTAVYYCARDYYGSSPLGYWGQGTLVTVSS VL: DIQMTQSPSSLSASVGDRVTITCSASSSISYMHWYQQKPGKAPKLLIYAASRLASGVPSRFSGSGSGTDFTLTISSLQPEDFATYYCHQRSSTSTFGQGTKLEIK
 | 1.8 |  |  | S-SL048-134 hIgG4 S228P (antibody, V domains shown, Tested as human IgG4 S228P) VH: QVQLVQSGAEVKKPGASVKVSCKASGYTFTSYNMHWVRQAPGQGLEWMGVINPSDGATSYAQKFKGRVTMTRDTSTSTVYMELSSLRSEDTAVYYCARDYYGSSPLGYWGQGTLVTVSS VL: DIQMTQSPSSLSASVGDRVTITCRASPSISYLNWYQQKPGKAPKLLIYATSKLPSGVPSRFSGSGSGTDFTLTISSLQPEDFATYYCQQRSSYPTFGQGTKLEIK
168 | 5.9 |  |  | S-SL048-110 hIgG4 S228P (antibody, V domains shown, Tested as human IgG4 S228P) VH: QVQLVQSGAEVKKPGASVKVSCKASGYTFTSYNMHWVRQAPGQGLEWMGVINPGDGATSYNQKFKGRVTMTRDTSTSTVYMELSSLRSEDTAVYYCARDYYGSSPLGYWGQGTLVTVSS VL: DIQMTQSPSSLSASVGDRVTITCSASQSISYLHWYQQKPGKAPKLLIYAASRLASGVPSRFSGSGSGTDFTLTISSLQPEDFATYYCHQRSSTPTFGQGTKLEIK
186 | 6 |  |  | S-SL048-115 hIgG4 S228P (antibody, V domains shown, Tested as human IgG4 S228P) VH: QVQLVQSGAEVKKPGASVKVSCKASGYTFTSYNMHWVRQAPGQGLEWMGVINPSDGATSYAQKFKGRVTMTRDTSTSTVYMELSSLRSEDTAVYYCARDYYGSSPLGYWGQGTLVTVSS VL: DIQMTQSPSSLSASVGDRVTITCRASQSISYMHWYQQKPGKAPKLLIYAASKLPSGVPSRFSGSGSGTDFTLTISSLQPEDFATYYCHQRSSSPTFGQGTKLEIK
237 | 6 |  |  | S-SL048-105 hIgG4 S228P (antibody, V domains shown, Tested as human IgG4 S228P) VH: QVQLVQSGAEVKKPGASVKVSCKASGYTFTSYNMHWVRQAPGQGLEWMGVINPSDGATSYAQKFQGRVTMTRDTSTSTVYMELSSLRSEDTAVYYCARDYYGSSPLGYWGQGTLVTVSS VL: DIQMTQSPSSLSASVGDRVTITCSASQSISYLHWYQQKPGKAPKLLIYAASKLPSGVPSRFSGSGSGTDFTLTISSLQPEDFATYYCHQRSSYPTFGQGTKLEIK
164 |  |  |  | S-SL048-75 hIgG4 S228P (antibody, V domains shown, Tested as human IgG4 S228P) VH: QVQLVQSGAEVKKPGASVKVSCKASGYTFTSYNMHWVRQAPGQGLEWMGVIYPGGGYTSYAQKFKGRVTMTRDTSTSTVYMELSSLRSEDTAVYYCARDYYGSSPLGYWGQGTLVTVSS VL: DIQMTQSPSSLSASVGDRVTITCRASQSISYLNWYQQKPGKAPKLLIYATSNLQSGVPSRFSGSGSGTDFTLTISSLQPEDFATYYCHQRSSSPTFGQGTKLEIK
 | 5 | 28 | 54 | S-SL048-112 hIgG4 S228P (antibody, V domains shown, Tested as human IgG4 S228P) VH: QVQLVQSGAEVKKPGASVKVSCKASGYTFTSYNMHWVRQAPGQGLEWIGIIYPGDGATSYNQKFKGRVTMTRDTSTSTVYMELSSLRSEDTAVYYCARDYYGSSPLGYWGQGTLVTVSS VL: DIQMTQSPSSLSASVGDRVTITCRASSSISYMHWYQQKPGKAPKLLIYATSRLASGVPSRFSGSGSGTDFTLTISSLQPEDFATYYCHQRSSTPTFGQGTKLEIK
167 | 6.8 |  |  | S-SL048-86 hIgG4 S228P (antibody, V domains shown, Tested as human IgG4 S228P) VH: QVQLVQSGAEVKKPGASVKVSCKASGYTFTSYNMHWVRQAPGQGLEWMGVINPGDGATSYAQKFQGRVTMTRDTSTSTVYMELSSLRSEDTAVYYCARDYYGSSPLGYWGQGTLVTVSS VL: DIQMTQSPSSLSASVGDRVTITCRASQSISYLHWYQQKPGKAPKLLIYATSSLQSGVPSRFSGSGSGTDFTLTISSLQPEDFATYYCHQRSSYPTFGQGTKLEIK
 | 8.5 |  |  | S-SL048-47 hIgG4 S228P (antibody, V domains shown, Tested as human IgG4 S228P) VH: QVQLVQSGAEVKKPGASVKVSCKASGYTFTSYNMHWVRQAPGQGLEWIGVINPGGGYTSYTQKFQGRVTMTRDTSTSTVYMELSSLRSEDTAVYYCARDYYGSSPLGYWGQGTLVTVSS VL: DIQMTQSPSSLSASVGDRVTITCSASPSISYMNWYQQKPGKAPKLLIYATSRLQSGVPSRFSGSGSGTDFTLTISSLQPEDFATYYCQQRSSTPTFGQGTKLEIK
 | 6 |  |  | S-SL048-89 hIgG4 S228P (antibody, V domains shown, Tested as human IgG4 S228P) VH: QVQLVQSGAEVKKPGASVKVSCKASGYTFTSYNMHWVRQAPGQGLEWMGVINPSSGSTSYTQKFQGRVTMTRDTSTSTVYMELSSLRSEDTAVYYCARDYYGSSPLGYWGQGTLVTVSS VL: DIQMTQSPSSLSASVGDRVTITCRASPSISYLNWYQQKPGKAPKLLIYATSRLPSGVPSRFSGSGSGTDFTLTISSLQPEDFATYYCQQRSSNPTFGQGTKLEIK
82 | 9.6 |  |  | S-SL048-45 hIgG4 S228P (antibody, V domains shown, Tested as human IgG4 S228P) VH: QVQLVQSGAEVKKPGASVKVSCKASGYTFTSYNMHWVRQAPGQGLEWMGVINPSDGATSYTQKFQGRVTMTRDTSTSTVYMELSSLRSEDTAVYYCARDYYGSSPLGYWGQGTLVTVSS VL: DIQMTQSPSSLSASVGDRVTITCRASQSISYLHWYQQKPGKAPKLLIYAASRLASGVPSRFSGSGSGTDFTLTISSLQPEDFATYYCHQRSSTPTFGQGTKLEIK
